Results as given in patent US20200172905, “RNA APTAMERS AGAINST TRANSFERRIN RECEPTOR (TFR)” (CITY OF HOPE, published 2020).

Target: Transferrin receptor (TfR, TFRC) (UniProt P02786 SEQ:89-760)
Experiment: SPR; value only in figure, stated to be in similar range to TR14; Biacore T100, biotinylated aptamer on SA chip, 30 mM Tris-HCl pH 7.5, 150 mM NaCl, 5 mM MgCl2
Details: SELEX was against the extracellular domain; chain copies: 2; label: biotin (SPR), Cy3 (cell imaging)
Experimental: The kinetics of TR14 S1-3 were analysed by surface plasmon resonance (SPR) technology. The Biacore T100 (GE Healthcare, Uppsala, Sweden) was used to monitor label-free the aptamer-transferrin receptor interactions in real time. Biotinylated aptamers were coupled to a streptavidin-coated Biocore chip (SensorChip SA, BR-1003-98, General Electric Company) by an injection in binding buffer at concentration of 25 μg/mL (30 mM Tris-HCl, pH 7.5, 150 mM NaCl, 5 mM MgCl2) at 10 uL/min. The RNA was refolded by heating to 65° C. followed by cooling to 37° C. before immobilization. To measure binding kinetics, five concentrations of purified transferrin receptor protein were injected at a flow rate of 10 uL per minute. After binding, the surface was regenerated by injecting 50 mM NaOH at flow rate of 15 μL per minutes for 20 seconds. Data from the control surface were subtracted. BlAevaluation software (GE Healthcare) was used for analysis. The binding data were fit to a 1:1 binding with a mass transfer model to calculate kinetic parameters.

Chain of Transferrin receptor (TfR, TFRC) (P02786 89-760): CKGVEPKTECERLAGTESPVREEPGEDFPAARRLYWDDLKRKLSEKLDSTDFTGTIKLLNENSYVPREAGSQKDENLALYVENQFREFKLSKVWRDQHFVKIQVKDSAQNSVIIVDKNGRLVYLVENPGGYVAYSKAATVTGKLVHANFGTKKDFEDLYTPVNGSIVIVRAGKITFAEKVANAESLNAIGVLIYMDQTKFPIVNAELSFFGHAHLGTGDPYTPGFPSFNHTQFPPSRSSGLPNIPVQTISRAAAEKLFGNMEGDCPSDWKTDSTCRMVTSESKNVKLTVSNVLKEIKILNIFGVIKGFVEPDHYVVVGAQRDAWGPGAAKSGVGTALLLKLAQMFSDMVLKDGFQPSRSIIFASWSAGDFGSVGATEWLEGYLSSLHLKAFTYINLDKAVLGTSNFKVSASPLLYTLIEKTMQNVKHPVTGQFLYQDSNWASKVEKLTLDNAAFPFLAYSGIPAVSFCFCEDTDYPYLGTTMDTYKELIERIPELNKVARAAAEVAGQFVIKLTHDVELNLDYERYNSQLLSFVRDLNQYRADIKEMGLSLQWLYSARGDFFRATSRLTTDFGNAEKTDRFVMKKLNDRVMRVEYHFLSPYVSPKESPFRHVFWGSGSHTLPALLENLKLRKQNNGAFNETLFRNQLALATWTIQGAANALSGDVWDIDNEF

B1: TR14 S1-3 (22-mer) (ssRNA)
RNA: UUUAUUCACAUUUUUGAAUUGA
modifications: 2'-F (library of 2'F RNAs; positions not stated)
binding result: binds
